Literature values in paper PMC12250766.
Read-outs that look alike come from different tables or passages of the source. Blank lines part the entries; values can stand above or below the substance they belong to.

What was measured:
[1] = target: PSGL-1 (Homo sapiens) (UniProt Q14242)
[2] = target: PSGL-1 (Homo sapiens) (UniProt Q14242); remark: listed apart in the source
[3] = target: PSGL-1 model glycosulfopeptide (Homo sapiens) (UniProt Q14242)
[4] = target: PSGL-1 model glycopeptide (Homo sapiens) (UniProt Q14242)
[5] = target: PSGL-1 model glycosulfopeptide (Homo sapiens) (UniProt Q14242); remark: listed apart in the source

Kd [1]: 15 µM
Substance: E-selectin (from UniProt P16581)

Kd [2]: 5 µM
Substance: L-selectin (from UniProt P14151)

Kd [3]: 0.65 µM
Kd [4]: 25 µM
Kd [5]: 6 µM
Substance: P-selectin (from UniProt P16109)
